Assay results: PMC11024442, “Lipocalin-type prostaglandin D synthase: a glymphopathy marker in idiopathic hydrocephalus” (Frontiers in Aging Neuroscience, 2024)

Molecular target: T1, human recombinant Tau-441 (human, UniProt P10636-8 1-441)
T1 construct: Commercial recombinant protein; source: bought: WAKO
Experiment: SPR; Biacore 2000; recombinant human Δ1–22 L-PGDS amine-coupled to a CM5 chip; Tau-441 flowed at 3, 2 and 1 nM; dissociation on washing with Dulbecco's phosphate-buffered saline; Kd from the sensorgrams with BIAevaluation 3.1
Settings: both partners purified

T1 sequence (P10636 other isoform, or with tags, fused parts or gaps): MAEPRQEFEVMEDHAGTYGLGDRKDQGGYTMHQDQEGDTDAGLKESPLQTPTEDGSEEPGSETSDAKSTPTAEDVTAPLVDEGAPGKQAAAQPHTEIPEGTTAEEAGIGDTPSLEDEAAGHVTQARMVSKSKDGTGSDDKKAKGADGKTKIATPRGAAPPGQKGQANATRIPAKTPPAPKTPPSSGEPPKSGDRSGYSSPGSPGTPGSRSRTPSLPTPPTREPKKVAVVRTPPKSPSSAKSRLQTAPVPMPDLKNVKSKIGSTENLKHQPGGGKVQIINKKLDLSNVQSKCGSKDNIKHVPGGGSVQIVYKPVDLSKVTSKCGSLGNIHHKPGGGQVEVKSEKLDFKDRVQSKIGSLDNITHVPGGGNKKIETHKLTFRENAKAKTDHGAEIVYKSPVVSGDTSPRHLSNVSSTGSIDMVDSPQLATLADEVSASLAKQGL

B1: human recombinant Δ1–22 L-PGDS (lipocalin-type prostaglandin D synthase without the signal sequence) (enzyme, UniProt P41222 23-190, looked up)
chain: APEAQVSVQPNFQQDKFLGRWFSAGLASNSSWLREKKAALSMCKSVVAPATDGGLNLTSTFLRKNQCETRTMLLQPAGSLGSYSYRSPHWGSTYSVSVVETDYDQYALLYSQGSKGPGEDFRMATLYSRTQTPRAELKEKFTAFCKAQGFTEDTIVFLPQTDKCMTEQ
notes: Cloned into pGEX-2T as a GST fusion and cut with thrombin; also called recombinant human ∆1–22 L-PGDS; recombinant human L-PGDS; source: E. coli BL21 (DE3), purified (glutathione-Sepharose 4B, thrombin digestion, gel filtration on HiLoad Superdex 75)
For B1, the Kd was 910 µM.
